Consider ten molecules from patent US20190040149A1 (Innovent, published 2019).

Assay [1] deals with T1, human PD-1 (soluble antigen of the MSD assay, b-PD-1 monomer) (human, UniProt Q15116 25-170, limits assumed, biotinylated (b-PD-1), site not stated).
T1 construct: The antigen format of the 'avid' measurement is not described
Description: MSD solution equilibrium titration, avid KD. On the procedure: (§1) Equilibrium affinity measurements are performed as previously described (Estep, P., et al., MAbs, 2013. 5(2): p. 270-8). Solution equilibrium titrations (SET) are performed in PBS+0.1% IgG-Free BSA (PBSF) where antigen (b-PD-1 monomer) is held constant at 10-100 pM and is incubated with 3- to 5-fold serial dilutions of Fab or mAbs starting at 5-100 nM (experimental condition is sample dependent). Antibodies diluted at 20 nM in PBS are coated onto standard bind MSD-ECL plates overnight at 4° C. or at room temperature for 30 min. Plates are blocked with BSA for 30 min whilst shaking at 700 rpm. Plates are then washed 3× with wash buffer (PBSF+0.05% Tween 20). SET samples are applied and incubated on the plates for 150 s with shaking at 700 rpm followed by one wash. Antigen captured on a plate is detected with 250 ng/mL sulfotag-labeled streptavidin in PBSF by incubation on the plate for 3 min. The plates are washed three times with wash buffer and are then read on the MSD Sector Imager 2400 instrument using 1× Read Buffer T with surfactant. The percent free antigen is plotted as a function of titrated antibody in Prism and fit to a quadratic equation to extract the KD. To improve throughput, liquid handling robots are used throughout MSD-SET experiments, including for SET sample preparation.

The target in assay [2] is T2, murine PD-1 on CHO cells (mouse, UniProt Q02242 25-288).
T2 sequence: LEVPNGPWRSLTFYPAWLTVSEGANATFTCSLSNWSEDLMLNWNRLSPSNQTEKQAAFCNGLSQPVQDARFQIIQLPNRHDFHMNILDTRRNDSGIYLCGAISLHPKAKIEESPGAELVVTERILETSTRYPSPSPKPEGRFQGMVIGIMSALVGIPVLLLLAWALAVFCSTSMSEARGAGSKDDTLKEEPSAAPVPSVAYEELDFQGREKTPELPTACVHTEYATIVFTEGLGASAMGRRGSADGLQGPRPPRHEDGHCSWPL
Nature of the assay: flow cytometry on CHO cells with murine PD-1. On the procedure:
(§2) Cells are then washed 3×, and are incubated with a secondary antibody (PE-labelled, at final concentration of 5 μg/ml) in PBS 1% BSA for 30 min on ice (protected from light). Cells are washed 3× and analyzed via flow cytometry. Flow cytometry is performed on an Accuri C6 system (BD Biosciences) and MFIs are calculated on the C6 software. EC50 s are calculated on Graphpad software.

The target of assay [3] is T1, human PD-1 (soluble antigen of the MSD …). Description: MSD solution equilibrium titration, monovalent KD. On the procedure:
as §1

In assay [4] the target is T3, murine PD-1 (soluble antigen of the MSD assay) (mouse, UniProt Q02242 25-169, limits assumed).
T3 construct: also called mouse PD-1
T3 sequence: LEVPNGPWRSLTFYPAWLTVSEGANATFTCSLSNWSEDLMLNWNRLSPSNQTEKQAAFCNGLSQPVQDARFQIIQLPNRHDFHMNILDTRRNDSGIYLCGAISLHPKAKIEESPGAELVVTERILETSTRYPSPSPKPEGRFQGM
Nature of the assay: MSD solution equilibrium titration, monovalent KD. The method, then:
as §1

In assay [5] the target is T4, human PD-1_HIS (human, UniProt Q15116 25-167, limits assumed).
T4 construct: not shown: His tag
T4 sequence (Q15116 25-167 limits assumed): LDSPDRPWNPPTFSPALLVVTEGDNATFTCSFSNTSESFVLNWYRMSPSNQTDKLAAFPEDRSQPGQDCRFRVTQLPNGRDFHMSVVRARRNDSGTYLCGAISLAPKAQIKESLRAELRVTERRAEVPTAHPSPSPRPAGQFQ
Description: bio-layer interferometry (ForteBio), human PD-1_HIS in solution, IgG on sensor tip. On the procedure: Briefly, ForteBio affinity measurements were performed by loading IgGs online onto AHQ sensors. Sensors were equilibrated off-line in assay buffer for 30 min and then monitored on-line for 60 seconds for baseline establishment. Sensors with loaded IgGs were exposed to 100 nM antigen for 5 min, afterwards they were transferred to assay buffer for 5 min for off-rate measurement. Kinetics was analyzed using the 1:1 binding model.

Assay [6] addresses T5, human PD-1_Fc (human, UniProt Q15116 25-167, limits assumed).
T5 construct: not shown: Fc part
Nature of the assay: bio-layer interferometry (ForteBio), Fab in solution, human PD-1_Fc on sensor tip. (Biolayer interferometry detects binding as a change in optical thickness at a sensor tip.)

Assay [7] concerns the target cyno PD-1_Fc (cyno). Nature of the assay: bio-layer interferometry (ForteBio), Fab in solution, cyno PD-1_Fc on sensor tip.
Assay [8] deals with T6, murine PD-1_Fc (mouse, UniProt Q02242 25-167, limits assumed).
T6 construct: not shown: Fc part
T6 sequence: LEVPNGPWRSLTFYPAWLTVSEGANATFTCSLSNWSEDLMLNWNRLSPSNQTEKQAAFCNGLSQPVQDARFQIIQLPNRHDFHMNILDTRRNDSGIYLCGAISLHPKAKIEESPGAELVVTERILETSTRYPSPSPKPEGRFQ
Nature of the assay: bio-layer interferometry (ForteBio), Fab in solution, murine PD-1_Fc on sensor tip.

For assay [9], the target named is T3, murine PD-1 (soluble antigen of the MSD …). Nature of the assay: MSD solution equilibrium titration, avid KD. On the procedure: as §1
Assay [10] deals with T7, human PD-1 on cells (CHO cells; T cells in the mixed lymphocyte reaction) (human, UniProt Q15116 25-288).
T7 construct: also called human PD-1 on CHO cells
T7 sequence (Q15116 25-288 limits assumed): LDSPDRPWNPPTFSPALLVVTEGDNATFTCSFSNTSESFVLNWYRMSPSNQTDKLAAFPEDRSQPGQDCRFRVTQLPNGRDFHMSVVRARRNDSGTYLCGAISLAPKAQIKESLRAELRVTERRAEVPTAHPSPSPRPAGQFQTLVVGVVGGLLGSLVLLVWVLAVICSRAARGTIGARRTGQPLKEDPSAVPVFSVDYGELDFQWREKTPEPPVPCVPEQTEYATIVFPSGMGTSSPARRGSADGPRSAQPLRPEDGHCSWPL
Nature of the assay: flow cytometry, remaining PD-L2-FITC signal after 100 nM antibody; competitor PD-L2-FITC. On the procedure: CHO cells 0.2×10⁶ are incubated with the experimental antibody (100 nM) for 30 min in PBS 1% BSA on ice. […] Cells are washed 3× and analyzed via flow cytometry. Flow cytometry is performed on an Accuri C6 system (BD Biosciences) and MFIs are calculated on the C6 software. EC50 s are calculated on Graphpad software.

In assay [11] the target is T7, human PD-1 on cells (CHO cells; T cells …). Description: cell-based or functional assay.
The target is the same in assay [12]. Description: cell-based or functional assay. The source holds these as a separate data set.
Assay [13] shares this target. Description: flow cytometry on CHO cells with human PD-1 (n=1). The method, then: as §2
(A flow cytometer gives signals particle by particle.)

Residue numbers refer to the chain shown, from its start.

T5 sequence (Q15116 25-167 limits assumed): as the sequence (Q15116 25-167 limits assumed) above
T1 sequence (Q15116 25-170 limits assumed): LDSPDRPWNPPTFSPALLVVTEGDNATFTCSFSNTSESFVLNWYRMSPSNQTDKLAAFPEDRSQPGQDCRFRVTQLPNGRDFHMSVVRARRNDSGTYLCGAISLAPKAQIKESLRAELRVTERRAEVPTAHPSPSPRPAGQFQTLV

B1: Antibody D, IgG1 format expressed in yeast (antibody, V domains shown)
VH: QVQLVQSGAEVKKPGASVKVSCKASGYTFEKYYMHWVRQAPGQGLEWMGIINPDGGSTGYAQKFQGRVTMTRDTSTSTVYMELSSLRSEDTAVYYCAKEGVADGYGLVDVWGQGTMVTVSS
VL: EIVLTQSPATLSLSPGERATLSCRASQSVSSYLAWYQQKPGQAPRLLIYDASKRATGIPARFSGSGSGTDFTLTISSLEPEDFAVYYCDQRNNWPLTFGGGTKVEIK
notes: Tested in IgG1 format, expressed in yeast
One may read the Kd as the free concentration of one partner at which half of the binding sites on the other are occupied at equilibrium, for simple one-to-one binding. A low value points to a tighter complex. As a reminder, the EC50 is the concentration that produces a half-maximal response. On to B1, for which the Kd in assay [1] was determined as 0.035 nM; in assay [3], 0.3 nM; in [4] it was 2.3 nM; in assay [5], 1.9 nM. The same molecule returned an EC50 in assay [2] of 9.26 nM.

B2: Fab of Antibody C (Fab, V domains shown)
VH: B1 VH with E30T, K31A, Y32Q, D54S, S57E
VL: B1 VL
notes: Fab in solution in BLI; also called Antibody C (Fab in solution)
Turning to B2, the figures for the Kd in assay [6], in assay [7] and in assay [8] were 2 nM, 2.4 nM and 10 nM, respectively.

B3: Fab of Antibody D (Fab, V domains shown)
VH: B1 VH
VL: B1 VL
notes: Fab in solution in BLI; also called Antibody D (Fab in solution)
With B3, the figures for the Kd in [6], in [7] and in [8] were 3.4 nM, 4.4 nM and 7.8 nM, respectively.

B4: Fab of Antibody B (Fab, V domains shown)
VH: B1 VH with K31G, D54E, S57E, G59S, T76I, V79A, S85R, E89D
VL: B1 VL
notes: Fab in solution in BLI; also called Antibody B (Fab in solution)
Regarding B4, the Kd came out at 2.7 nM in assay [6], 3.7 nM in [7] and 17 nM in assay [8].

B5: Fab of Antibody A (Fab, V domains shown)
VH: B1 VH with E30T, K31S, D54S, G59S, V119I
VL: B1 VL
notes: Fab used in solution in the bio-layer interferometry columns 'Fab in solution'; also called Antibody A (Fab in solution)
Take B5: the Kd in [6] turned out to be 16 nM; in assay [7], 14 nM; in assay [8] it was 33 nM.

B6: Antibody F, IgG1 format expressed in yeast (antibody, V domains shown)
VH: B1 VH with E30S, K31A
VL: B1 VL
notes: as for B1
As for B6, the Kd was found to be 0.018 nM in assay [1]; 0.44 nM in assay [9]; 0.17 nM in assay [3]; 1.2 nM in [4]; 1.6 nM in assay [5]. This molecule also came in with an EC50 in assay [2] of 5.86 nM.

B7: Fab of Antibody E (Fab, V domains shown)
VH: B1 VH with E30T, K31S, Y32N, D54S, G55E
VL: B1 VL
notes: Fab in solution in BLI; also called Antibody E (Fab in solution)
On to B7, for which the Kd in assay [6] turned out to be 2.7 nM; in assay [7], 3.3 nM; in [8], 7.6 nM.

B8: Antibody B, IgG1 format expressed in yeast (antibody, V domains shown)
VH: B1 VH with K31G, D54E, S57E, G59S, T76I, V79A, S85R, E89D
VL: B1 VL
notes: as for B1
On to B8, for which the Kd came to 0.014 nM in [1]; 0.38 nM in assay [9]; 0.13 nM in [3]; 2.7 nM in [4]; 1.4 nM in assay [5]. In [2], this molecule came in with an EC50 of 6.13 nM.

B9: Fab of Antibody F (Fab, V domains shown)
VH: B1 VH with E30S, K31A
VL: B1 VL
notes: Fab in solution in BLI; also called Antibody F (Fab in solution)
As to B9, the Kd in assay [6] stood at 3 nM; in [7], 3.6 nM; in [8], 6.1 nM.

B10: Antibody A, IgG1 format expressed in yeast (antibody, V domains shown)
VH: B1 VH with E30T, K31S, D54S, G59S, V119I
VL: B1 VL
notes: as for B1
The molecule B10 showed a Kd in assay [1] of 0.049 nM. The “MFI (PD-L2-FITC)” value in [10] worked out at 90900 MFI. In assay [2], this molecule came in with an EC50 of 11 nM. For the same molecule, in assay [11], the “IFNg secretion fold change vs. IgG control, 0.01 nM IgG” value turned out to be 1.49 fold; the “IFNg secretion fold change vs. IgG control, 0.1 nM IgG” value was 1.49 fold; the “IFNg secretion fold change vs. IgG control, 1 nM IgG” value worked out at 1.11 fold; the “IFNg secretion fold change vs. IgG control, 10 nM IgG” value worked out at 1.37 fold. Further, in assay [11], the “IFNg secretion fold change vs. IgG control, 100 nM IgG” value is 1.52 fold; the “IFNγ in supernatant, 0.01 nM IgG” value was 22100 pg/mL; the “IFNγ in supernatant, 0.1 nM IgG” value came out at 16400 pg/mL; the “IFNγ in supernatant, 1 nM IgG” value is 12900 pg/mL. In addition, in assay [11], the “IFNγ in supernatant, 10 nM IgG” value worked out at 18400 pg/mL and the “IFNγ in supernatant, 100 nM IgG” value worked out at 22600 pg/mL. Besides, in assay [12], the “IL-2 in supernatant, 0.01 nM IgG” value came to 708 pg/mL; the “IL-2 in supernatant, 0.1 nM IgG” value was determined as 586 pg/mL; the “IL-2 in supernatant, 1 nM IgG” value amounted to 618 pg/mL; the “IL-2 in supernatant, 10 nM IgG” value is 975 pg/mL. Besides, in assay [12], the “IL-2 in supernatant, 100 nM IgG” value was determined as 1410 pg/mL; the “IL-2 secretion fold change vs. IgG control, 0.01 nM IgG” value stood at 1.37 fold; the “IL-2 secretion fold change vs. IgG control, 0.1 nM IgG” value is 1.15 fold; the “IL-2 secretion fold change vs. IgG control, 1 nM IgG” value is 1.23 fold. In [12], the “IL-2 secretion fold change vs. IgG control, 10 nM IgG” value came to 1.87 fold and the “IL-2 secretion fold change vs. IgG control, 100 nM IgG” value turned out to be 2.28 fold. In assay [13], this molecule gave an EC50 of 10.2 nM. Moreover, binding in assay [3] was put at a Kd of 4.9 nM. The molecule further yielded a dissociation constant Kd in assay [4] of 9.6 nM. For the same molecule, the affinity in assay [5], expressed as Kd, was 4.3 nM.
